Assay results: patent publication US20100029554A1, “Composition and Methods for Treatment of Congestive Heart Failure” (Amylin Pharmaceuticals, Inc., priority 2006, published 2010)
Where no end group is shown, it is not given here. [ ]: non-standard residue; d: D form. Gly(octyl) = CCCCCCCC[C@H](N)C(=O)O

T1: GLP-1 receptor, endogenous in RINm5f cells (rat (RIN-m5F are called rat pancreas insulinoma cells)), P32301
T1 chain: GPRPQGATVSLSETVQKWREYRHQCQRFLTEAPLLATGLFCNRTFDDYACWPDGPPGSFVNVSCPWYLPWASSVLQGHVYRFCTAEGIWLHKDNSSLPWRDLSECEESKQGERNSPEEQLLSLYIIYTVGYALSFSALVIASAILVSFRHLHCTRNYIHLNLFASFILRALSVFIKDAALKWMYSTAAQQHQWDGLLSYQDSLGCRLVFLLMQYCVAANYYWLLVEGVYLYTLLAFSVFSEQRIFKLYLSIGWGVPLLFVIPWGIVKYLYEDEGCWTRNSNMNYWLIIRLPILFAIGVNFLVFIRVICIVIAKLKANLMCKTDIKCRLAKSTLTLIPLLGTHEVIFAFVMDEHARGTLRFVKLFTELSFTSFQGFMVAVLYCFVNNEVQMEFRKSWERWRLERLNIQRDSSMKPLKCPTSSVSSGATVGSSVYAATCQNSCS

T2: GLP-1 receptor, endogenous in RINm5f cells (rat (RIN-m5F are called rat pancreas …, UniProt P32301 22-463))
T2 sequence (looked up): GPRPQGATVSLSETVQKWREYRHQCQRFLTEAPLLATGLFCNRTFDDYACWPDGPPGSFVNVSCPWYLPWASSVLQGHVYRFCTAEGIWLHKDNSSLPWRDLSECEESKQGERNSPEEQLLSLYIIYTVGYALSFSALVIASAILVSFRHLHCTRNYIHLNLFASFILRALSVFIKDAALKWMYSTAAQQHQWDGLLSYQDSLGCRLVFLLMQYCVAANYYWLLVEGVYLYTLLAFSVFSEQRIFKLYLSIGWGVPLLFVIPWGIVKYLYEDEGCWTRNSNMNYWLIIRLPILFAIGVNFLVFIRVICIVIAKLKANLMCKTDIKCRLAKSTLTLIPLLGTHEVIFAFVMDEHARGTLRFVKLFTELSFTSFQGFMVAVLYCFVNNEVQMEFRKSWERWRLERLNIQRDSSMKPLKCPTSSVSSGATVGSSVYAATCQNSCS


Key:
[1] = target: T1, GLP-1 receptor, endogenous in RINm5f …; assay: cell-based or functional assay
[2] = target: T1, GLP-1 receptor, endogenous in RINm5f …; assay: 125I-GLP-1 displacement, RINm5f membranes
[3] = target: T2, GLP-1 receptor, endogenous in RINm5f …; assay: cell-based or functional assay
[4] = target: T2, GLP-1 receptor, endogenous in RINm5f …; assay: 125I-GLP-1 displacement, RINm5f membranes

| Binder | cAMP, CYCLASE GLP/GIP/CT (RIN) EC50 [1] [nM] | IC50 [2] [nM] | cAMP, CYCLASE GLP/GIP/CT (RIN) EC50 [3] [nM] | IC50 [4] [nM] |
| --- | --- | --- | --- | --- |
| HAEGTFTSDVSSYLEGQAAKEFIAWLVKGRPSGGGIPI (modifications not checked) [Cmpd 4888] | 0.17 | 0.13 | – | – |
| HGEGTFTSDLSKQLEEEAVRLFIEWLKNPGGKEIIS (tested as C-terminal acid (-OH)) [Cmpd 5296] | – | – | 0.145 | 4 |
| HAEGTFTSDVSSYLEGQAAKEFIAWLVKGRGGGIPI (modifications not checked) [Cmpd 4957] | 0.51 | 0.1 | – | – |
| HGEGTFTSDLSKQLEEEAVRLFIEFLKNGKPKK[Gly(octyl)]RYS-OH (N-terminus assumed; SMILES CCCCCCCC[C@H](NC(=O)[C@H](CCCCN)NC(=O)[C@H](CCCCN)NC(=O)[C@@H]1CCCN1C(=O)[C@H](CCCCN)NC(=O)CNC(=O)[C@H](CC(N)=O)NC(=O)[C@H](CCCCN)NC(=O)[C@H](CC(C)C)NC(=O)[C@H](Cc1ccccc1)NC(=O)[C@H](CCC(=O)O)NC(=O)[C@@H](NC(=O)[C@H](Cc1ccccc1)NC(=O)[C@H](CC(C)C)NC(=O)[C@H](CCCNC(=N)N)NC(=O)[C@@H](NC(=O)[C@H](C)NC(=O)[C@H](CCC(=O)O)NC(=O)[C@H](CCC(=O)O)NC(=O)[C@H](CCC(=O)O)NC(=O)[C@H](CC(C)C)NC(=O)[C@H](CCC(N)=O)NC(=O)[C@H](CCCCN)NC(=O)[C@H](CO)NC(=O)[C@H](CC(C)C)NC(=O)[C@H](CC(=O)O)NC(=O)[C@H](CO)NC(=O)[C@@H](NC(=O)[C@H](Cc1ccccc1)NC(=O)[C@@H](NC(=O)CNC(=O)[C@H](CCC(=O)O)NC(=O)CNC(=O)[C@@H](N)Cc1c[nH]cn1)[C@@H](C)O)[C@@H](C)O)C(C)C)[C@@H](C)CC)C(=O)N[C@@H](CCCNC(=N)N)C(=O)N[C@@H](Cc1ccc(O)cc1)C(=O)N[C@@H](CO)C(=O)O, tested as C-terminal acid (-OH)) [Cmpd 5269] | – | – | 1.31 | 0.088 |
| HAEGTFTSDVSSYLEGQAAKEFIAWLVKGRGGG (not fully specified; modifications not checked) [Cmpd 4844, GLP-1-(7-37)-GG(S)-2,6-diamino-1-(thiazolidin-3-y1)hexan-1-one amide] | 0.13 | – | – | – |
| HAEGTFTSDVSSYLEGQAAKEFIAWLVKGRGGG (not fully specified; modifications not checked) [Cmpd 4845, GLP-1-(7-37)-GG-(S)-2,6-diamino-1-(thiazolidin-2-cyano-3-y1)hexan-1-one amide] | 0.4 | – | – | – |
| HAEGTFTSDVSSYLEGQAAKEFIAWLVKGRGGGGIPI (modifications not checked) [Cmpd 4887] | 0.22 | 0.17 | – | – |
